B1: TRIM11: human RING type E3 ligase expressed from lentiviral vector (protein, UniProt Q96F44 1-468, looked up)
E3 ubiquitin-protein ligase …: MAAPDLSTNLQEEATCAICLDYFTDPVMTDCGHNFCRECIRRCWGQPEGPYACPECRELSPQRNLRPNRPLAKMAEMARRLHPPSPVPQGVCPAHREPLAAFCGDELRLLCAACERSGEHWAHRVRPLQDAAEDLKAKLEKSLEHLRKQMQDALLFQAQADETCVLWQKMVESQRQNVLGEFERLRRLLAEEEQQLLQRLEEEELEVLPRLREGAAHLGQQSAHLAELIAELEGRCQLPALGLLQDIKDALRRVQDVKLQPPEVVPMELRTVCRVPGLVETLRRFRGDVTLDPDTANPELILSEDRRSVQRGDLRQALPDSPERFDPGPCVLGQERFTSGRHYWEVEVGDRTSWALGVCRENVNRKEKGELSAGNGFWILVFLGSYYNSSERALAPLRDPPRRVGIFLDYEAGHLSFYSATDGSLLFIFPEIPFSGTLRPLFSPLSSSPTPMTICRPKGGSGDTLAPQ
B2: TRIM13: human RING type E3 ligase expressed from lentiviral vector (protein, UniProt O60858 1-407, looked up)
E3 ubiquitin-protein ligase …: MELLEEDLTCPICCSLFDDPRVLPCSHNFCKKCLEGILEGSVRNSLWRPAPFKCPTCRKETSATGINSLQVNYSLKGIVEKYNKIKISPKMPVCKGHLGQPLNIFCLTDMQLICGICATRGEHTKHVFCSIEDAYAQERDAFESLFQSFETWRRGDALSRLDTLETSKRKSLQLLTKDSDKVKEFFEKLQHTLDQKKNEILSDFETMKLAVMQAYDPEINKLNTILQEQRMAFNIAEAFKDVSEPIVFLQQMQEFREKIKVIKETPLPPSNLPASPLMKNFDTSQWEDIKLVDVDKLSLPQDTGTFISKIPWSFYKLFLLILLLGLVIVFGPTMFLEWSLFDDLATWKGCLSNFSSYLTKTADFIEQSVFYWEQVTDGFFIFNERFKNFTLVVLNNVAEFVCKYKLL
modifications: lentiviral expression
notes: human RING type E3 ligase expressed from lentiviral vector
B3: TRIM14: human RING type E3 ligase expressed from lentiviral vector (protein, UniProt Q14142 1-442, looked up)
Tripartite motif-containing …: MAGAATGSRTPGRSELVEGCGWRCPEHGDRVAELFCRRCRRCVCALCPVLGAHRGHPVGLALEAAVHVQKLSQECLKQLAIKKQQHIDNITQIEDATEKLKANAESSKTWLKGKFTELRLLLDEEEALAKKFIDKNTQLTLQVYREQADSCREQLDIMNDLSNRVWSISQEPDPVQRLQAYTATEQEMQQQMSLGELCHPVPLSFEPVKSFFKGLVEAVESTLQTPLDIRLKESINCQLSDPSSTKPGTLLKTSPSPERSLLLKYARTPTLDPDTMHARLRLSADRLTVRCGLLGSLGPVPVLRFDALWQVLARDCFATGRHYWEVDVQEAGAGWWVGAAYASLRRRGASAAARLGCNRQSWCLKRYDLEYWAFHDGQRSRLRPRDDLDRLGVFLDYEAGVLAFYDVTGGMSHLHTFRATFQEPLYPALRLWEGAISIPRLP
B4: TRIM15: human RING type E3 ligase expressed from lentiviral vector (protein, UniProt Q9C019 1-465, looked up)
E3 ubiquitin-protein ligase …: MPATPSLKVVHELPACTLCAGPLEDAVTIPCGHTFCRLCLPALSQMGAQSSGKILLCPLCQEEEQAETPMAPVPLGPLGETYCEEHGEKIYFFCENDAEFLCVFCREGPTHQAHTVGFLDEAIQPYRDRLRSRLEALSTERDEIEDVKCQEDQKLQVLLTQIESKKHQVETAFERLQQELEQQRCLLLARLRELEQQIWKERDEYITKVSEEVTRLGAQVKELEEKCQQPASELLQDVRVNQSRCEMKTFVSPEAISPDLVKKIRDFHRKILTLPEMMRMFSENLAHHLEIDSGVITLDPQTASRSLVLSEDRKSVRYTRQKKSLPDSPLRFDGLPAVLGFPGFSSGRHRWQVDLQLGDGGGCTVGVAGEGVRRKGEMGLSAEDGVWAVIISHQQCWASTSPGTDLPLSEIPRGVRVALDYEAGQVTLHNAQTQEPIFTFTASFSGKVFPFFAVWKKGSCLTLKG
modifications: lentiviral expression
notes: as for B2
B5: TRIM17: human RING type E3 ligase expressed from lentiviral vector (protein, UniProt Q9Y577 1-477, looked up)
E3 ubiquitin-protein ligase …: MEAVELARKLQEEATCSICLDYFTDPVMTTCGHNFCRACIQLSWEKARGKKGRRKRKGSFPCPECREMSPQRNLLPNRLLTKVAEMAQQHPGLQKQDLCQEHHEPLKLFCQKDQSPICVVCRESREHRLHRVLPAEEAVQGYKLKLEEDMEYLREQITRTGNLQAREEQSLAEWQGKVKERRERIVLEFEKMNLYLVEEEQRLLQALETEEEETASRLRESVACLDRQGHSLELLLLQLEERSTQGPLQMLQDMKEPLSRKNNVSVQCPEVAPPTRPRTVCRVPGQIEVLRGFLEDVVPDATSAYPYLLLYESRQRRYLGSSPEGSGFCSKDRFVAYPCAVGQTAFSSGRHYWEVGMNITGDALWALGVCRDNVSRKDRVPKCPENGFWVVQLSKGTKYLSTFSALTPVMLMEPPSHMGIFLDFEAGEVSFYSVSDGSHLHTYSQATFPGPLQPFFCLGAPKSGQMVISTVTMWVKG
B6: TRIM18: human RING type E3 ligase expressed from lentiviral vector (protein, UniProt O15344 1-667, looked up)
E3 ubiquitin-protein ligase …: METLESELTCPICLELFEDPLLLPCAHSLCFNCAHRILVSHCATNESVESITAFQCPTCRHVITLSQRGLDGLKRNVTLQNIIDRFQKASVSGPNSPSETRRERAFDANTMTSAEKVLCQFCDQDPAQDAVKTCVTCEVSYCDECLKATHPNKKPFTGHRLIEPIPDSHIRGLMCLEHEDEKVNMYCVTDDQLICALCKLVGRHRDHQVAALSERYDKLKQNLESNLTNLIKRNTELETLLAKLIQTCQHVEVNASRQEAKLTEECDLLIEIIQQRRQIIGTKIKEGKVMRLRKLAQQIANCKQCIERSASLISQAEHSLKENDHARFLQTAKNITERVSMATASSQVLIPEINLNDTFDTFALDFSREKKLLECLDYLTAPNPPTIREELCTASYDTITVHWTSDDEFSVVSYELQYTIFTGQANVVSLCNSADSWMIVPNIKQNHYTVHGLQSGTKYIFMVKAINQAGSRSSEPGKLKTNSQPFKLDPKSAHRKLKVSHDNLTVERDESSSKKSHTPERFTSQGSYGVAGNVFIDSGRHYWEVVISGSTWYAIGLAYKSAPKHEWIGKNSASWALCRCNNNWVVRHNSKEIPIEPAPHLRRVGILLDYDNGSIAFYDALNSIHLYTFDVAFAQPVCPTFTVWNKCLTIITGLPIPDHLDCTEQLP
modifications: lentiviral expression
notes: as for B2

system: coxsackievirus B3 (CVB3-GFP); type: cell-based; details: HeLa cells, GFP-positive cells within RFP-positive gate, replicate R1

| Molecule | Percent Infected R1 [%] |
| --- | --- |
| B1 | 58.2 |
| B2 | 53 |
| B3 | 70.6 |
| B4 | 66.8 |
| B5 | 75.9 |
| B6 | 71.6 |

same assay, conditions: HeLa cells, replicate R1

| Molecule | Z score R1 |
| --- | --- |
| B1 | −0.387 |
| B2 | −0.453 |
| B3 | −0.229 |
| B4 | −0.277 |
| B5 | −0.162 |
| B6 | −0.216 |
